From PMC6778059 (Nature cell biology, 2019) come the findings set out here.

Common to all, as to test: ITC
(In general: ITC needs no label: the signal is the heat of the interaction.)

One experiment has as its target SNX32 PX domain.
A further experiment has as its target T1, SNX5 PX domain (UniProt Q9Y5X3 25-172).
T1 sequence: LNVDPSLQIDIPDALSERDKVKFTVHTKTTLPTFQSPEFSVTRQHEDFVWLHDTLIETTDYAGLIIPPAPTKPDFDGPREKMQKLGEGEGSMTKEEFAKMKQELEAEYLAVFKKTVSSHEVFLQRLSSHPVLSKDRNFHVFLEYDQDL

Another experiment deals with T2, SNX6 PX domain (UniProt Q9UNH7 26-173).
T2 sequence: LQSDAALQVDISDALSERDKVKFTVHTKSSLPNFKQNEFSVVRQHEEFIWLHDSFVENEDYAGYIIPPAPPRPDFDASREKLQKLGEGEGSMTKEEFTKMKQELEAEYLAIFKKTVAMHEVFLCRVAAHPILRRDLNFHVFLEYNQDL

Take “CI-MPR peptide (residues 2347-2375) (from UniProt P11717 2347-2375)”: in the experiment with SNX32 PX domain, the Kd (usually the constant that tells how readily two partners part at equilibrium) was found to be 12 µM.
In the case of REVSFYYSEENKLPEPEELDLEPENMES [IGF1R peptide (residues 1275-1302)], binding with SNX5 PX domain was characterised by a dissociation constant (Kd) of 15 µM. This counts as double-digit micromolar.
Consider SNVSYKYSKVNKEEETDENETEWLMEEIQ [CI-MPR peptide (residues 2347-2375)], for which the Kd was ~25 µM with SNX5 PX domain and 24 µM in the experiment with SNX6 PX domain.
Take SNVSYKYSKVNKEEETDENETEWLDEEIQ [CI-MPR peptide M2371D]: the binding result with SNX5 PX domain is on record as “binds”.
The same measure, in the same setting: to SNVSYKYSKVNKEEETDENETEWDMEEIQ [CI-MPR peptide L2370D] belongs “binds”.
WDPVGYYYSDGSLKIVPGHARCQPG [SEMA4C peptide (residues 731-755)]: the dissociation constant Kd in the experiment with SNX5 PX domain is 26 µM.
Consider SNVSYKYSKVNKEEETDENETEAAAEEIQ [CI-MPR peptide WLM-AAA], for which, in the experiment with SNX5 PX domain, the binding result is given as “binds”.
